{"source": "the DeepSol protein solubility set"}
{"assay": "soluble on expression in E. coli; label from the status in PepcDB or PDB records"}
{"sequence": "MILDSQLAQQIVDRTMAIIGYNINVMNQAGVIIGSGEKNRIGQVHDGAILALKHGDSVELTAESCVALKGVKPGINMVLRNQQQVVGIVGITGEPKDIRDFANLVKMSAEMIIEQAALVEQLQWDRRHREEFISAWIHNTLSAAELDAWAARLSIDLSKPRVAVVIAFRQPKSGQSLDQIRQVVELLEHPERDNLVAVVSMQEIVVLKPCRTPEHWTSEYESLRIDKLMARLKAYDITGYDIALGQLFINPNAIHLSYQSAKQVLRIGQVRQPEKQKHLYEELRLPVLLLPLNEGWQGEQWRRVMQELQTQDKSGQLVKTLKGLFAANGNLNLCAQQLFIHRNTLRYRLEKITEITGIETNSLLGLAELYIAYQLTSYD", "soluble on expression in E. coli": "soluble"}
{"sequence": "MGSDKIHHHHHHMKSHVRSFKTYIRDEIIKKGGWVNAHAHADRAFTMTPEKIGIYHSSNLQQKWDLVDEVKRTSSVDDYYARFCQSIELMISQGVTAFGTFVDIDPICEDRAIIAAHKAREVYKHDIILKFANQTLKGVIEPTARKWFDIGAEMVDMIGGLPYRDELDYGRGLEAMDILLDKAKSLGIMCHVHVDQFNNPSEKETEQLCDKTIEHGMEGRVVGIHGISIGSHSKEYRYKLYEKMRKAKMMMIACPMAWIDSNRKEDLMPFHNALTPADEMIPEVSLLP", "soluble on expression in E. coli": "not soluble"}
{"sequence": "MQLTIKNKDLNTLYRVLDKIKITNMRANRGRAKLLAKVVDKINEYAKDETDLIDMYAAKDKDDKFVIDEHKNIKLADPAKLDELNDLLNELADEEIVIKGGEYSKRFIDFLNFLEECEDEFTSSEIILIDNILEQFEESKKGE", "soluble on expression in E. coli": "not soluble"}
{"sequence": "MKVVRVCGGFGNQLFQYAFYLAVKHKFNETTKLDIHDMASYELHNGYELERIFNLNENYCSAEEKLAVQSTKNIFTKLLKEIKKYTPFIPRTYIKEKKHLHFSYQEVDLGTKDTSIYYRGSWQNPQYFNSIASEIREKLTFPEFTEPKSLALHQEISEHETVAVHIRRGDYLKHKALGGICDLPYYQNAIKEIEGLVEKPLFVIFSDDITWCRANINVEKVRFVDWNSGEQSFQDMHLMSLCTHNIIANSSFSWWGAWLNANPNKIVISPNKWIHYTDSMGIVPSEWIKVETSILEHHHHHH", "soluble on expression in E. coli": "not soluble"}
{"sequence": "GSHMEEAKGPVKHVLLASFKDGVSPEKIEELIKGYANLVNLIEPMKAFHWGKDVSIENLHQGYTHIFESTFESKEAVAEYIAHPAHVEFATIFLGSLDKVLVIDYKPTSVSL", "soluble on expression in E. coli": "soluble"}
{"sequence": "MSLDQYGNIRAMGIHSLLYCERLFYLEEVEGILVADDRVYAGRTLHEELEPNEDFSGRIESFHYTSEKLEVSGKVDRIQKRDGDWIPYEHKRGRARIGTNGPEAWESDQCQVTVYALLLEEATGRNISEGKIRYHGSKDLVKIEIDEELRSKALKTIDRAKELSTSTNRPPVAQNENLCKNCSLAPVCLPEETRVITENEYEPIRLFPEKREGHHHHHH", "soluble on expression in E. coli": "soluble"}
{"sequence": "MGSDKIHHHHHHMPVDWPLRFPQLSGGASRPHSSLASTCVGGLQELMQSCYPPRGGCWIAAVLEDAGVERVCGLLGKGHAGVVLLVEWRGVAAALKVRRRDSRRGSLEPEARVAEKAALAGAAPEVYGYGEEFIAMAPALGPSLQDLAEEGLLTPQHILASIEAAWALDNAGILHGELHRPWRNVLFNPRKALIIDYDSASSGCGNVVKLVSGISRRVPSLLGLVRSERFRDLAKRYYREGCGKATYMEMLDEVKKHISVI", "soluble on expression in E. coli": "not soluble"}
{"sequence": "MLEARDLYCERDERTLFRGLSFTVDAGEWVQVTGGNGAGKTTLLRLLTGLARPDGGEVYWQGEPLRRVRDSFHRSLLWIGHQPGIKTRLTARENLHFFHPGDGARLPEALAQAGLAGFEDVPVAQLSAGQQRRVALARLWLTRAALWVLDEPFTAIDVNGVARLTRRMAAHTAQGGMVILTTHQPLPGAADTVRRLALTGGGAGL", "soluble on expression in E. coli": "not soluble"}
{"sequence": "MSLNTQQGLDEIERIAADETVVANVESEAEVKMAETIPVETPPAVVPSVDDSSLYIHRELSQLQFNIRVLEQALDESYPLLERLKFLLIFSSNLDEFFEIRIAGLKKQITFAREQAGADGLLPHQALARISELVHEQVSRQYRILNETLLPELAKHQIRFIRRRHWTLKIKTWVRRFFRDEIAPIITPIGLDPTHPFPLLVNKSLNFIVELEGMDAFGRDSGLAIIPAPRLLPRIIRLPEDVGGEGDNYVFLSSMIHAHADDLFPGMKVKGCYQFRLTRNADLSVDTEDVEDLARALRGELFSRRYGDAVRLEVVDTCPQNLTNYLLKQFGLSESELYKVSGPVNLTRLFSVTGLESHPELQYPPFTPAIPRLLQKKENLFNVLSKLDVLLMHPFESFTPVIDLLRQAAKDPNVLAIKQTLYRSGANSEIVDALVEAARNGKEVTAVIELRARFDEESNLQLASRLQQAGAVVIYGVVGFKTHAKMMLILRREDGELRRYAHLGTGNYHAGNARLYTDYSLLTADVALCEDLHKLFNQLIGMGKTLRMKKLLHAPFTLKKNLLEMINREAAQAALGQPAHIMAKVNSLTDPKVIRALYKASQAGVRIDLVVRGMCCLRPGIPGVSHNIHVRSIIGRFLEHSRIYYFLNGGDEKLYLSSADWMERNLDMRVETCFPVEGKKLVQRVKKELETYLTDNTQAWVLQADGSYQRLSPTGNQNPRNTQATLLEKLAAPVLTAREGHHHHHH", "soluble on expression in E. coli": "soluble"}
{"sequence": "MIRIELPTLIAKLNAQSKLALEQAASLCIERQHPEVTLEYYLDVLLDNPLSDVRLVLKQAGLEVDQVKQAIASTYSREQVLDTYPAFSPLLVELLQEAWLLSSTELEQAELRSGAIFLAALTRADRYLSFKLISLFEGINRENLKKHFAMILSDSAETAVAKTDKNAANPLQAAAETPLGRFCTNVTEQARNGELDPVLSRENELNLMVDILCRRRKNNPIVVGEAGVGKSAMIEGLALRVVAGKVPTQLQNVELYSLDLGRLQAGASVKGEFEKRLKGVIDAIKQSPKPIILFIDEAHTLIGSGNQEGGSDAANLLKPALARGELSTVAATTWKEYKKYFEKDPALTRRFQLVKLDEPTIDQAVDILRGLNSVYEKAHNVLITDDALKAAAELSARYISGRQLPDKAIDVLDTACARIAINMTTPPKRLALLETLCHQRQLEIDMLERAQFLGQEVDSERLDVLRNQELADEAEKAALTQSWQQQKSLVESIIALRAELMELSQAQEQDPDHLLVVRTALQEQYQALDAIDHAERLMHPQVDADQIAEVIADWTGVPVDQMNTDELHKITHLTSILGQAIKGQETAIERIHRHLLTARADLRRPGRPKGAFLLVGPSGVGKTETVVQLAEQLYGGKQFLTTINMSEYQEKHTVSRLIGSPPGYVGYGEGGVLTEAIRKMPYSVVLLDEVEKAHPEVLNIFYQGFDKGEIADGEGRVIDCQNIVFFLTSNLGYQTIVDYADEPAKLDEALYPELAAFFKPALLARMEVIPYLPLGKEVLAQIVRGKLARLEKLFKTRYNAEVVIEESLIDEILSRATRSENGARMLEAIIEGQLLPPVSLALLNKLAERAPVERIRLAAEAGEFIGEVA", "soluble on expression in E. coli": "not soluble"}
{"sequence": "MGSDKIHHHHHHMCGHAKGGLTVLVSSRACPPQVQHRYLKTVLYLDCPQEVGDQSSPWWLLNIGYWLYGSACMLCKAAFGIELATEPQMEFSAHKGTTSISLVRDALQGAELRGLDVATVLSHAHIDPRLLDQRYARVPAGTFSRLWIALADLLDDEFFAADSHPLRRGSFKLMAQLALGCDTIGQALKRILAFLRTALDDIYGSVECEGEHAAIIIHDHGELRRVFCYGAWLVLVHGLLCWLCDRRIPIVKLSMRPPQPVDDSDYRMRFCEEIEWRADRTSAVFEKSFLAYKVCQTPVSLPAFLKGTPSNFLVKYRNDDSTSIMIRRRLKLLSPHTWPELDELARDLSMSSSTLQRRLYAEGFTYQRLKDNLRRDISISLLCRAGMTVDGVASEVGFIETSAFHRAFKKWTGITPGAYRRSLLSPRGD", "soluble on expression in E. coli": "not soluble"}
{"sequence": "MIQITVVQIDNYGPWTVTPNPRRESDLQALQSRLYCDMNLQFGAHKGLAFYTRFDNIIAITNGIDLETHKRIQNSVKNRYPFTVSMAVASAETAYEAQKLATKTIQEYGSAQDDVRKEVLDVANEFVSNGYVQLAHVDINDITGKLTDLETAYDTYLSVQKTKLKLMEELKKYDSLGFFIGGDNFMCPCNGMNEKDFLCMFEDIKDSCGIELKAGIGIGKTAEDASNLADIGLEVIREGKTDSQVYTLKQ", "soluble on expression in E. coli": "not soluble"}
{"sequence": "MGHHHHHHSHMDEGVKEKFIGAVLGAAVGDALGKSVEDITEEEVFEFYGDRIRDFVTPHPSSPAYGQLPEETSDETTIFRLLLESLVEKKALDVRDFLNRLMEWYDREEMHRYPDPMLLTAIDLLSRGINPSTHGLTSFSVEGILRSVALGLYHYYNPELAAEGSKVVSLLTHRSDVISDASAILGALIAHLVRGDFYLEDFREKLRLIETLKDYAKEEKHKKILDRVAELLMESADLETAINTLGNGTFAFEAFPLALYIFLSNVENPEEALFQAVNSYGEFGGDTDAIGFLVGAMLGAYYGEEAIPYHLRENVENSQKLRELAERLYEVVEKQVGFSQ", "soluble on expression in E. coli": "soluble"}
